Where no end group is shown, it is not given here. [ ]: non-standard residue; d: D form. pGlu = O=C1CC[C@@H](C(=O)O)N1
Key:
[1] = target: fibrin (fibrinogen dried on microtiter wells and converted with thrombin); experiment: competitive ELISA on fibrin-coated wells, competitor biotinylated Fn (2.3 nM)
[2] = target: fibrin (fibrinogen dried on microtiter wells and converted with thrombin); experiment: competitive ELISA on fibrin-coated plates, competitor Fn (2.3 nM), 5,000 molar excess
[3] = target: fibrin (fibrinogen dried on microtiter wells and converted with thrombin); experiment: competitive ELISA against intact Fn on fibrin
[4] = target: fibrin (fibrinogen dried on microtiter wells and converted with thrombin); experiment: competitive ELISA on fibrin-coated plates, competitor Fn
[5] = target: fibrin (fibrinogen dried on microtiter wells and converted with thrombin); experiment: competitive ELISA on fibrin-coated plates, competitor Fn (2.3 nM)

B1: recombinant ^1 F1.^2 F1 module pair of fibronectin (peptide)
chain: QAQQMVQPQSPVAVSQSKPGCYDNGKHYQINQQWERTYLGNALVCTCYGGSRGFNCESKPEAEETCFDKYTGNTYRVGDTYERPKDSMIWDCTCIGAGRGRISCTI
modifications: N-terminal pyroglutamate; the major species lacks the NH2-terminal Gln-Ala dipeptide and its new N-terminal Gln is also pyroglutamate
Binder B1 has a % inhibition of biotinylated Fn binding [1] of 15% and a % inhibition of Fn binding [2] of less than 20%.

CRDEKTQMIYQQHQSWLRPVLRSNRVEYCWCNSGRAQCH (not fully specified (bridges); cysteine pairing not given here) [t-PA type 1 module] showed a % inhibition (so in the source) [3] of 45% and a % inhibition of fibronectin binding [4] of 55%.

B2: recombinant ^1 F1 module of fibronectin (peptide)
chain: [pGlu]AQQMVQPQSPVAVSQSKPGCYDNGKHYQINQQWERTYLGNALVCTCYGGSRGFNCESKPE
modifications: not fully specified (bridges); also: major species lacks N-terminal Gln-Ala, its new N-terminal Gln also pyroglutamate
Work on B2 yielded a % inhibition of Fn binding [5] of less than 20%.
